Reference: article PMC9897490

Biological target: FtsZ (wild type, Caulobacter crescentus) (Caulobacter crescentus)
Experiment: BLI

Sequence of FtsZ (wild type, Caulobacter crescentus) (Caulobacter crescentus) (B8H080 whole entry): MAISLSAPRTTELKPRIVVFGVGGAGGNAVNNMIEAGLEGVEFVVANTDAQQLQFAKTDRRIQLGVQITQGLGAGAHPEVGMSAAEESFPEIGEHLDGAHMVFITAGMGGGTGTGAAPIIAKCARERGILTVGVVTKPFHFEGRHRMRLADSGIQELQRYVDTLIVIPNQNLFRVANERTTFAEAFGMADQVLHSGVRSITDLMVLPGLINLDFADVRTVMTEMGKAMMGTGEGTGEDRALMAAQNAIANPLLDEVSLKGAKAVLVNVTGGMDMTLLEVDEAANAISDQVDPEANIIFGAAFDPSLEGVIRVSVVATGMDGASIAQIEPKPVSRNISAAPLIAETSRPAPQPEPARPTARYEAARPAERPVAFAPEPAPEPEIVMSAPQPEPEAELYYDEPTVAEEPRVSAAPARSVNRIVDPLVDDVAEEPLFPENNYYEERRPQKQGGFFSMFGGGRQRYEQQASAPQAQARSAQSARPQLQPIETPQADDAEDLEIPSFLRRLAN

Kd: 11 µM
Substance: MipZ-His6 (wild type) (enzyme)
